Measurements published in patent publication US20250144035A1, “Method of Increasing Epithelial Permeability Using Nanoparticles” (Carnegie Mellon University, priority 2017, published 2025).

Columns and labels:
mice = assay: Intestinal insulin delivery, blood glucose; type: in vivo
[1] = Experimental: Following ten hours of fasting, mice were orally gavaged with PBS (for control) or nanoparticle suspensions (100 mg/kg unless otherwise specified). Two hours later, their initial blood sugar was measured, and the animals were placed under anesthesia. Their intestines were surgically exposed, and insulin was injected at the predetermined dose (1 unit per kg body weight unless otherwise specified) into the duodenum. The mice were closed and secured with tissue adhesive, then kept under anesthesia as their blood sugar levels were monitored each hour for five hours. For comparison to the current standard of insulin delivery, subcutaneous injections were given to additional mice, into the scruff on their necks. To determine specific insulin concentrations, blood samples were collected and separated via centrifugation. The serum was subjected to ELISA analysis for human insulin (LifeTechnologies®, Carlsbad, CA) per the instructions of the kit manufacturer.

For insulin, the blood glucose response (mice; 1 U/kg subcutaneous) was “pronounced, but brief response”, the “blood glucose, response to insulin dose” value (mice; increasing intestinal insulin dose, constant particle administration of 100 mg/kg) was “increased magnitude and duration of hypoglycemia” and the blood insulin concentration ([1]; intestinal insulin along with nanoparticles) was “slight elevations in blood insulin that persisted for at least four hours”. For the same substance, the “return of blood insulin to normal levels” value ([1]; subcutaneous injection) was “shortly after two hours” and the “time of spike in blood insulin concentration” value ([1]; subcutaneous injection) was ≤ 30 min.
